Reference: patent WO2022068891A1 (dated 2022)

Legend:
[1] = molecular target: T1, Biotinylated PD-1-huIgG1 Fc (Kactus Biosystems) (UniProt Q15116 25-167, limits assumed, biotinylated (site not given)); experiment: neutralisation ELISA: PD-L1-huIgG1 Fc coated, antibody titrated against biotinylated PD-1-huIgG1 Fc
T1 construct: the whole entry is named

[2] = molecular target: T2, PD-1 Protein, Human, Recombinant (His Tag) (Beijing Yiqiao Shenzhou / Sino Biological) (human, UniProt Q15116 25-167); experiment: binding ELISA: human PD-1 His tag protein coated at 0.5 ug/ml, antibody in two-fold dilutions from 10 ug/ml
T2 construct: Bought reagent; the whole entry is named
T2 sequence (Q15116 25-167 limits assumed): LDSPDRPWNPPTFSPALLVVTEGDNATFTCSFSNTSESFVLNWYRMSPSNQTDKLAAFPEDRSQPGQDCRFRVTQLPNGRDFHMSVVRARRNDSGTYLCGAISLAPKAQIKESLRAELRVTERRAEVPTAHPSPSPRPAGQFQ

T1 sequence (Q15116 25-167 limits assumed): as above

IC50 [1]: 3.6 µg/mL | EC50 [2]: 0.0172 µg/mL
B1: 6H6 hIgG1 form antibody (antibody, V domains shown)
VH: EVKLVESGGGLVKPGGSLKLSCAASGFTFSSYGMSWVRQTPEKRLEWVATISGGGRYTYYPDSVKGRFTISRDNAKNNLYLQMSSLRSEDTALYYCASIYDGYYFDYWGHGTTLTVSS
VL: DIVITQSPATLSVTPGDSVSLSCRASQSISNNLHWYQKKSHESPRLLIKYASQSISGIPSRFSGSGSGTDFTLSINSVETEDFGMYFCQQSNSWPLTFGAGTKLELK
notes: also called 6H6 antibody; 6H6 huIgG1 antibody
